This note sets out measurements from patent publication US20030175243A1.

The experiment addresses natural cellular receptor for adenoviruses, on human 293 cells. As to the kind of experiment: cell-based or functional assay.

The substance “Ad5 fiber ΔCD+D (deletion of the CD loop and of the D sheet) (from UniProt P11818 1-581)” gave a propagation of the corresponding virus in 293 cells (multiplication factor) (multiplication factor) below 1.

Regarding “Ad5 fiber with the mutation A455F (from UniProt P11818 1-581)”, the propagation of the corresponding virus in 293 cells (multiplication factor) (multiplication factor) was below 1.

Turning to “GRP fiber (Ad5 fiber with a 12-residue spacer arm and the GRP peptide at its C-terminal end), carried by AdTG4628 (from UniProt P11818 1-581)”, the multiplication factor of the virus in 293 cells (7 days post-infection) (multiplication factor) was 1000.

In turn, “Ad5 fiber with the mutation L457K (from UniProt P11818 1-581)” gave a propagation of the corresponding virus in 293 cells (multiplication factor) (multiplication factor) below 1.

“Ad5 fiber ΔD (deletion of the D sheet of the Ad5 fiber) (from UniProt P11818 1-581)” showed a propagation of the corresponding virus in 293 cells (multiplication factor) (multiplication factor) below 1.

In turn, “Ad5 fiber with the mutation G443D (from UniProt P11818 1-581)” gave a propagation of the corresponding virus in 293 cells (multiplication factor) (multiplication factor) below 1.

The substance “Ad5 fiber with the mutation I459A (from UniProt P11818 1-581)” gave a propagation of the corresponding virus in 293 cells (multiplication factor) (multiplication factor) below 1.

Turning to “Ad5 fiber CD5 to CD3 (replacement of the CD loop of an Ad5 with its equivalent from an Ad3)”, the propagation of the corresponding virus in 293 cells (multiplication factor) (multiplication factor) is below 1.
